Results as given in article PMC12578645 (2025).

B1: D48 Fab (Fab, V domains shown)
VH: EVQLVETGGGVVRPGRSLRLSCTTSGFSFSGSAMHWVRQAPGKGLEWVAVISHDGNIIQYHDSVKGRFTISRDNSKNVLLLQMNSLRVDDTAMYYCARDVWLLPATISYAFDFWGQGTMVTVSS
VL: VIWMTQSPPSLSASIGDTVTITCRASQGISNSIAWYQRRPGKAPELLVYAAYRLQSGVPSRLSGSGSGAEYTLTIKNMQPEDFATYYCQQYYDNPLTFGGGTKVEIK
B2: D48 Fab (Fab, V domains shown)
VH: B1 VH
VL: B1 VL
modifications: engineered disulfide A240C-E607C; N-linked glycans (densities seen at 141, 398, 430 and 674)
B3: PILRα_G78 ectodomain (paired immunoglobulin-like type 2 receptor alpha, HSV-1 gB co-receptor, with R78G) (receptor)
chain: QPSGSTGSGPSYLYGVTQPKHLSASMGGSVEIPFSFYYPWELATAPDVRISWRRGHFHGQSFYSTRPPSIHKDYVNRLFLNWTEGQKSGFLRISNLQKQDQSVYFCRVELDTRSSGRQQWQSIEGTKLSITQAVTTTTQRPSSMTTTWRLSSTTTTTGLRVTQGKRRSDSWHISLETA
B4: PILRα_G78 ectodomain (paired immunoglobulin-like type 2 receptor alpha, HSV-1 gB co-receptor, with R78G) (receptor)
chain: B3 chain
modifications: engineered disulfide A240C-E607C; N-linked glycans (densities seen at 141, 398, 430 and 674)
B5: gB-Ecto.H516P.L531E (HSV-1 glycoprotein B ectodomain stabilized in the prefusion conformation) (domain or fragment)
chain: not shown
modifications: N-linked glycans (densities seen at 141, 398, 430 and 674)

How the values were obtained:
Assay in all cases: SPR
[1] = molecular target: T1, gB-Ecto.H516P (HSV-1 glycoprotein B ectodomain with H516P and an appended foldon; postfusion) (HSV-1 KOS strain, UniProt P06437 31-728, H516P, N-linked glycans (densities seen at 141, 398, 430 and 674))
[2] = molecular target: B5
[3] = molecular target: T1, gB-Ecto.H516P (HSV-1 glycoprotein B …); remark: listed apart in the source
[4] = molecular target: B5; remark: listed apart in the source
[5] = molecular target: T2, gB-Ecto.H516P.L531E.DS (HSV-1 glycoprotein B ectodomain stabilized in the prefusion conformation with the … (HSV-1 KOS strain, UniProt P06437 31-728, H516P | L531E | A240C | E607C))
[6] = molecular target: T2, gB-Ecto.H516P.L531E.DS (HSV-1 …); remark: listed apart in the source
SS10 = molecular target: SS10
SS55 = molecular target: SS55
DL16 = molecular target: DL16

Binder	koff [1] [s⁻¹]	koff [2] [s⁻¹]	Kd [3] [nM]	Kd [4] [nM]	koff [5] [s⁻¹]	Kd [6] [nM]	further results
B1	4.06e-05	1.08e-05	0.252	0.0272	–	–	–
B2	–	–	–	–	2.18e-05	0.0827	–
B3	0.66	0.34	2000	1600	–	–	–
B4	–	–	–	–	0.33	1800	–
B5	–	–	–	–	–	–	Kd (SS10): 1.03 nM; koff (SS10): 5.6e-05 s⁻¹; Kd (SS55): 7.47 nM; koff (SS55): 0.000208 s⁻¹; Kd (DL16): 28.2 nM; koff (DL16): 0.0013 s⁻¹
